Laboratory results reported in publication PMC10410066.

Key:
[1] = molecular target: inhibitor of nuclear factor kappa B kinase subunit beta (IKBKB), FLAG-tagged (UniProt O14920); experiment: ELISA protein-protein interaction assay (2B7 capture, anti-FLAG detection); conditions: lysates of HEK293T cells co-overexpressing N571 Q55 HTT WT or S13A/S16A and FLAG-tagged IKBKB; parent: est. 100; read off a plot
[2] = molecular target: N571 Q55 HTT (N-terminal huntingtin fragment 1-571 with 55 glutamines); experiment: as above; conditions: lysates of HEK293T cells co-overexpressing N571 Q55 HTT and FLAG-tagged IKBKB construct; parent: est. 100; read off a plot

percent of parent [2] [%]	Substance	percent of parent [1] [%]
–	N571 Q55 HTT (N-terminal huntingtin fragment 1-571 with 55 glutamines) S13A; S16A	100
17	inhibitor of nuclear factor kappa B kinase subunit beta (IKBKB), FLAG-tagged (from UniProt O14920) K44A	–
190	inhibitor of nuclear factor kappa B kinase subunit beta (IKBKB), FLAG-tagged (from UniProt O14920) S177E; S181E	–
190	inhibitor of nuclear factor kappa B kinase subunit beta (IKBKB), FLAG-tagged (from UniProt O14920) W739A; W741A	–
